Assay results published in article PMC5765006, “Angiopoietins bind thrombomodulin and inhibit its function as a thrombin cofactor” (Scientific Reports, 2018).

Key:
[1] = target: T1, Thrombomodulin (TM) expressed on COS cells (human, UniProt P07204 19-575); assay: cell-surface binding assay (alkaline phosphatase-conjugated anti-human Fc, OD405); COS cells transfected with TM in 48-well plates, varying concentrations of FD-Fc in PBS/10% calf serum, 30 minutes at room temperature; specific binding = TM-transfected minus empty vector; apparent affinities; details: one partner purified
T1 construct: Thrombomodulin; cDNA isolated from expression libraries of HUVECs and EA.hy926 cells; Also used as the target of the functional rows on HUVECs (endogenous TM there); source: COS cells, transfected, on cells
T1 sequence (P07204 19-575): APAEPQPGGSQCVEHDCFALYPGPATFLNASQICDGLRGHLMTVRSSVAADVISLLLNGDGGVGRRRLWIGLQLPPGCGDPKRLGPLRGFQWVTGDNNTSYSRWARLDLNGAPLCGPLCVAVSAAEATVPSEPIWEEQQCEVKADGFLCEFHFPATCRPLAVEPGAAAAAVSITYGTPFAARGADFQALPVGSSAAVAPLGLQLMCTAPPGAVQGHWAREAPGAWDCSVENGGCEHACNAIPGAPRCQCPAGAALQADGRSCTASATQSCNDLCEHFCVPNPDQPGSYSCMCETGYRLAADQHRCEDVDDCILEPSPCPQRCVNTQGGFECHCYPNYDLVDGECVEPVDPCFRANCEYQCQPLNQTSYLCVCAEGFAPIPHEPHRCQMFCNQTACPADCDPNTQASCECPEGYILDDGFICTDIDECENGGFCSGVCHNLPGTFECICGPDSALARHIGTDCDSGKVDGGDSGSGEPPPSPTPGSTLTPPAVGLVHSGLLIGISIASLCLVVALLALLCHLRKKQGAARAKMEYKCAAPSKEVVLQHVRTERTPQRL

[2] = target: T2, soluble extracellular domain of human TM (human, UniProt P07204 19-515); assay: pull-down; 100 nM His-tagged TM extracellular domain with 5 nM thrombin and 0.25, 0.5 or 1.0 uM native Ang1, Ang2 or Ang4 (control), 60 minutes on ice, 0.15 M NaCl, 20 mM Tris pH 7.5, 0.1% Triton X-100, 2 mM CaCl2, 1 mg/ml BSA; TM collected on Ni-NTA beads, western blot; details: both partners purified
T2 construct: Thrombomodulin, human, soluble extracellular domain; also called soluble TM; source: bought: R&D Systems
T2 sequence (P07204 19-515): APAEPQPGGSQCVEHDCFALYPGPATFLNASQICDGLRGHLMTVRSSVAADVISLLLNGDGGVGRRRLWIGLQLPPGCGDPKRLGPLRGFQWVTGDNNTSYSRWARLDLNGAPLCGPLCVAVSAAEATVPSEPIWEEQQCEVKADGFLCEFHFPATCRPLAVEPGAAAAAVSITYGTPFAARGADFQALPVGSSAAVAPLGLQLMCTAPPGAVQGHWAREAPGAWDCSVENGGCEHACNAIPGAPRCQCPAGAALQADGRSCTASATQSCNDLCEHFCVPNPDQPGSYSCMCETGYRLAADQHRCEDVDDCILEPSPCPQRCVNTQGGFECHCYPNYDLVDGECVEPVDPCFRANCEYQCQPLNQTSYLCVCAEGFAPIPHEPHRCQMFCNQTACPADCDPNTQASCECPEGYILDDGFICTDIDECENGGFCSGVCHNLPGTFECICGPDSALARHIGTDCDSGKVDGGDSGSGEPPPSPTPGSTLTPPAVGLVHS

B1: Ang1-FD-Fc (Fc fusion, human, UniProt Q15389 277-498, looked up)
chain: REEEKPFRDCADVYQAGFNKSGIYTIYINNMPEPKKVFCNMDVNGGGWTVIQHREDGSLDFQRGWKEYKMGFGNPSGEYWLGNEFIFAITSQRQYMLRIELMDWEGNRAYSQYDRFHIGNEKQNYRLYLKGHTGTAGKQSSLILHGADFSTKDADNDNCMCKCALMLTGGWWFDACGPSNLNGMFYTAGQNHGKLNGIKWHYFKGPSYSLRSTTMMIRPLDF
notes: Used at 1 ug/ml in the screen; also called fibrinogen-like domain (FD) of Ang1 fused to a human Fc tag
Binder B1 has a Kd [1] of about 88 nM.

B2: native human Ang1 (ligand, UniProt Q15389 16-498, looked up)
chain: HIGCSNQRRSPENSGRRYNRIQHGQCAYTFILPEHDGNCRESTTDQYNTNALQRDAPHVEPDFSSQKLQHLEHVMENYTQWLQKLENYIVENMKSEMAQIQQNAVQNHTATMLEIGTSLLSQTAEQTRKLTDVETQVLNQTSRLEIQLLENSLSTYKLEKQLLQQTNEILKIHEKNSLLEHKILEMEGKHKEELDTLKEEKENLQGLVTRQTYIIQELEKQLNRATTNNSVLQKQQLELMDTVHNLVNLCTKEGVLLKGGKREEEKPFRDCADVYQAGFNKSGIYTIYINNMPEPKKVFCNMDVNGGGWTVIQHREDGSLDFQRGWKEYKMGFGNPSGEYWLGNEFIFAITSQRQYMLRIELMDWEGNRAYSQYDRFHIGNEKQNYRLYLKGHTGTAGKQSSLILHGADFSTKDADNDNCMCKCALMLTGGWWFDACGPSNLNGMFYTAGQNHGKLNGIKWHYFKGPSYSLRSTTMMIRPLDF
notes: Angiopoietin-1, human, 'native' as against the chimeric FD forms; also called Angiopoietin-1; source: bought: R&D Systems
B2: binds [2].

B3: native human Ang2 (ligand, UniProt O15123-3 19-495, looked up)
chain: YNNFRKSMDSIGKKQYQVQHGSCSYTFLLPEMDNCRSSSSPYVSNAVQRDAPLEYDDSVQRLQVLENIMENNTQWLMKLENYIQDNMKKEMVEIQQNAVQNQTAVMIEIGTNLLNQTAEQTRKLTDVEAQVLNQTTRLELQLLEHSLSTNKLEKQILDQTSEINKLQDKNSFLEKKVLAMEDKHIIQLQSIKEEKDQLQVLVSKQNSIIEELEKKIVTATVNNSVLQKQQHDLMETVNNLLTMMSTSNSKDPTVAKEEQISFRDCAEVFKSGHTTNGIYTLTFPNSTEEIKAYCDMEAGGGGWTIIQRREDGSVDFQRTWKEYKVGFGNPSGEYWLGNEFVSQLTNQQRYVLKIHLKDWEGNEAYSLYEHFYLSSEELNYRIHLKGLTGTAGKISSISQPGNDFSTKDGDNDKCICKCSQMLTGGWWFDACGPSNLNGMYYPQRQNTNKFNGIKWYYWKGSGYSLKATTMMIRPADF
notes: Angiopoietin-2, human, 'native' as against the chimeric FD forms; also called Angiopoietin-2; source: bought: R&D Systems
In the case of B3, the “percent inhibition of thrombin/TM complex formation at 1 uM Ang2” value [2] is reported as about 80%.

B4: Ang2-FD-Fc (Fc fusion, human, UniProt O15123-3 19-495, looked up)
chain: KEEQISFRDCAEVFKSGHTTNGIYTLTFPNSTEEIKAYCDMEAGGGGWTIIQRREDGSVDFQRTWKEYKVGFGNPSGEYWLGNEFVSQLTNQQRYVLKIHLKDWEGNEAYSLYEHFYLSSEELNYRIHLKGLTGTAGKISSISQPGNDFSTKDGDNDKCICKCSQMLTGGWWFDACGPSNLNGMYYPQRQNTNKFNGIKWYYWKGSGYSLKATTMMIRPADF
notes: Angiopoietin-2 (Ang2, ANGPT2), fibrinogen-like domain (FD); Detected with anti-human Fc
In the case of B4, the Kd [1] is reported as about 8.3 nM.
